Key:
[1] = target: human insulin receptor (human) (UniProt P06213); experiment: SPR (Biacore), soluble sortilin 50-500 nM over immobilized human insulin receptor
[2] = target: murine insulin receptor (murine) (UniProt P15208); experiment: SPR (Biacore), soluble sortilin 50-500 nM over immobilized murine insulin receptor
[3] = target: human insulin receptor (human) (UniProt P06213); experiment: Surface plasmon resonance (Biacore); human insulin receptor immobilized (0.0609 pmol/mm^2), sortilin injected at 50-500 nM, CaHBS buffer
[4] = target: murine insulin receptor (murine) (UniProt P15208); experiment: Surface plasmon resonance (Biacore); murine insulin receptor (mIR) immobilized (0.0607 pmol/mm^2), sortilin injected at 50-500 nM, CaHBS buffer

Kd [1]: 40 nM | Kd [2]: 40 nM | Kd [3]: 46 nM | Kd [4]: 42 nM
Substance: Soluble sortilin (from UniProt Q99523 78-755) (receptor)

From patent US20220033470A1
